From the DeepSol protein solubility set

Assay: soluble on expression in E. coli; label from the status in PepcDB or PDB records

Sequence | soluble on expression in E. coli
MNAATLVDTHAVDTALQEAFEAAPEGFALFDAEDRCVIWNARYGELWSKWGVTLAVGATFESLLLAGLAAGRFPEANGDRAAWLAHQLGRRKLDRIEEIREEFGEYLRFESRRTPAGGLITTCANLTNLRRREAQALAARSFLDTIVENTPAMLFVKDGDTGAFLLVNRAAENQLGVPRAELLGKSDYDFFPKEQADAFAADDRRVIASGKLVTIDEEPLDTPHNGRRWLQTRKIAIPGEDGRRHLLVICEDITERKAGAAALAEALQKAEAGSVAKSEFLANMSHEIRTPLNGVIGMAEVLSRTALDDAQREMMEVILNSGRALNLLLSDILDLSKIEAGGLELSRDPLDLREAITAAVAVFKAVAESKGLVFRLTFADDFHDHVLGDALRVRQIVANLTSNAVKFTTAGSVIIEARTLVAEDGRIDLTVSVQDTGEGFDEDSADRLFERFQQADGSVTRKVGGTGLGLPIARRLARLMDGEISCVAHPGEGATFVFEALFLADGQRTPAASADPAGELALDRRLRVLLAEDHPTNQKVIGLMLADAADVTVAEDGQAAVEAFEKHAYDVVLMDTQMPVMDGLAAIAEIRRREREAQARRTPIISLTANAMPHQVRACLEAGADLHLAKPVSIQGLFATLGAALETRPGGEGLEHHHHHH | not soluble
MQICQNPSCSNPFNPDGNRFCMSCGQSNFGKLLRNRYRVLGLLGEGGFSKTYAAEDADRLDAPCVIKQFFPQIQGTGQRSKAAEFFKEEAFRLYELGENHTQIPRLLAYFEQGSSLYLVQEFIKGLTLLQEVQQEPFNEEKIRQLLIDLLPVLDFVHFHHVIHRDIKPENIIRRDGDGKLVLIDFGGAKQVTQTSIARQATAIYTLGYAPTEQMAGFACHASDLYALGVTCVRLLTQCLPQQNLYGHIDDGLYDPMNGKWLWQEYLQDRGITISENLSQILDKLLKHLPSERYQSAAEVLHDLQVFTAIVEETQILPNTQTTLVPLAPATQRTKRPLPPLQTFEYEVVTVDTAGRIVNRDRTNTQILVEQLNKDITLEMLSIPGGAYLMGSPNFEGDADERPQHQVAIAPFFMGKYPVTQAQWRAVAGLPKIKQALNPYPSKYKGQNRPVENVSWHEVLEFCARLSEKTGREYRLPSEAEWEYACRAGTTTSFHFGETITPDLANFSDSDIHNIEAKTRYRKETTDVGNFRVANAFGLYDMHGLVWEWCADPWHNNYNGAPTDGSVWEAGGDIYRRVLRGGSWNFGAELCRSASRSWNESDGGLRICGFRVVFSAGLEHHHHHH | soluble
MSAIEVTADAASTWDWPLQHNDGVVKVHNTKEKFEVGLDVQFFTPKEIEVKVSGQELLIHCRHETRSDNHGTVAREINRAYKLPDDVDVSTVKSHLATRGVLTITASKKA | soluble
LKASGVQAQMAKQQEQDPTNLYISNLPLSMDEQELENMLKPFGQVISTRILRDSSGTSRGVGFARMESTEKCEAVIGHFNGKFIKTPPGVSAPTEPLLCKF | soluble
MHMSFDGMFTYGMTHELNEKIMGGRITKIHQPYKHDVIFHIRAKGKNQKLLLSAHPSYSRVHITAQAYENPSEPPMFCMLLRKHIEGGFIEKIEQAGLDRIMIFHIKSRNEIGDETVRKLYVEIMGRHSNIILTDAAENVIIDGLKHLSPSMNSYRTVLPGQDYKLPPAQDKISPLEASEDDILRHLSFQEGRLDKQIVDHFSGVSPLFAKEAVHRAGLANKVTLPKALLALFAEVKEHRFIPNITTVNGKEYFYLLELTHLKGEARRFDSLSELLDRFYFGKAERDRVKQQAQDLERFVVNERKKNANKIKKLEKTLEYSENAKEFQLYGELLTANLYMLKKGDKQAEVINYYDEESPTITIPLNPNKTPSENAQAYFTKYQKAKNSVAVVEEQIRLAQEEIEYFDQLIQQLSSASPRDISEIREELVEGKYLRPKQQKGQKKQKP | soluble
HELLSREEVESILSENQLLLQVTPTAPPKTPLSVCFYQVSLEIDRPQSPLVSQSAFEEAATLYNLLPKVDSWICEQLLVDHAQAIHQKGLALAIPLSEAALLKEDFRQSLLTLVQQTLLPPQSLYWMIDESTLLQYPFAIGNFLAKLQQPGCKLIVKEFGHNLNDFELLAEHHIDYLKFNSELIAHIHINQMDEVLISIINGTAQRANIATLAGPVELPPTLSKLIDIGVDLADGTMIGRTEPLSEVLNSSYFAIK | soluble
MGSDKIHHHHHHMEEGSAGMGMSQNNSTLVAPQPKGIIDPATGKPVGSNDAYFTEINDELADKGFLVTSTDELITWARTGSLMWMQFGLACCAVEGLMQASGPRYDMERFGVAPRASPRQSDVMIVAGTLTNKMAPALRKVYDQMPEPRYVISMGSCANGGGYYHYSYAVVRGCDRVVPVDIYVPGCPPTAEALLYGVLLLQKKIRRTGTIER | not soluble
GHMAGNPPDPNAASTGTNPSPQAAGDISPEMMPETANIKLGYIPIVEAAPLIIAQEKGFFAKYGMTGVEVSKQANWASARDNVTIGSQGGGIDGGQWQMPMPHLITEGIITNGNKVPMYVLAQLITQGNGIAVAPMHEGKGVNLDITKAADYIKGFNKTNGRKFKAAHTFPNVNQDFWIRYWFAAGGVDPDTDIDLLAVPPAETVQGMRNGTMDAFSTGDPWPYRIVTENIGYMAGLTAQIWPYHPEEYLAIRADWVDKNPKATKALLKGIMEAQQWIDDPKNRPEVVQIVSGRNYFNVPTTILESPFKGQYTMGDGQPAIDDFQKGPLYWKDGIGNVSYPYKSHDLWFLTESIRWGFHKNAIPDLDTAQKIIDKVNREDLWREAATEAGFTADIPSSTSRGVETFFDGITFDPANPSAYLQSLAIKKV | soluble
MSHVELQPGFDFQQAGKEVLAIERECLAELDQYINQNFTLACEKMFWCKGKVVVMGMGKSGHIGRKMAATFASTGTPSFFVHPGEAAHGDLGMVTPQDVVIAISNSGESSEITALIPVLKRLHIPLICITGRPESSMARAADVHLCVKVAKEACPLGLAPTSSTTATLVMGDALAVALLKARGFTAEDFALSHPGGALGRKLLLRVNDIMHTGDEIPHVKKTASLRDALLEVTRKNLGMTVICDDNMMIEGIFTDGDLRRVFDMGVDVRQLSIADVMTPGGIRVRPGILAVEALNLMQSRHITSVMVADGDHLLGVLHMHDLLRAGVV | soluble
MEANMKKVIGAATATVFGLGAFTTTATAETIVTADVLNVREKPTTESKVVEKVKNGQELKVINTEDGWSKIELNGKEVFVSSEFTKDVYHVTANLLNVRTEANTDSEILGRLKKDDVIESTHQVKDGWLQFEYKGKTAYANVSFLSSTAPTEKKTEEKTKQVAKVQKSVKEKKEVKTQKVAKAKETTKAQEIVKPKEEAKVVKVKEEEKAQEIVKPKEEAKIKEEVKVKEEVKVKEEEKAQEIAKAKEEAKIKEEVKVKEEEKAQEIVKAKEEVKAKEEEKAQEIVKAKEEVKVKEEVKAKEIAKAKEEEKAREIAKAKEEEKAKEIAKAKEEEKAREIAKAKEEEKAREIAKAKEEEKAREIAKAKEEEKAREIAKAKEEERAKEASKNNIQSAKRELTVVATAYTADPSENGTYGGRVLTAMGHDLTANPNMRIIAVDPKVIPLGSKVWVEGYGEAIAGDTGSAIKGNRIDVLMGSKSKAMNWGRQTVKVKILLEHHHHHH | not soluble
MGKKRKHQDSDSEQSGKRVKKVEEARNGVADMTIDESSDFQVFLIKKPIGVSLEDLEALKWSNDEEVLTKTKLKTESGVFRAIVAPKSKKERMVHIPAFREREEADSKNIKAQSFVTGAITILPQEVKPKVLGGFIYEEGEEPVEGSSEVHPGLKKIKKTAILDLESRQQRNKAYGTTTEGDGKPRKLANIIEKMN | soluble
MRSMNTHAVLQFLSGNGIAILQFFHQLILQGKTQDDLTRDYALDRAWVGSVMKLAKELFDPRPSPSRDECISVAKELGLGIEVLKAINPALGRLNKKASMTKDDLRLRLYREARGMTPAEAKAHANTRVVALNDACGATPRKPAVRISKSTDAAGQRHIHASLDDATASAVAEKLHAGARWLTKKTPSLSYSQAMAEIFAIAILDSPALGGRKRREGLILLPADGYTHRGNGMLATTDGSLIPAHKLAEHLLEEYGYAMLYALNDEGVPEPVDLYRTKRYANDKQRLMITADQLTCSHPDCHRLANNSHIHHCTAWERGGETNVKNLVAACATHNRRNDDDPERHKNGYFRRMPHSGCAGFQPADPSLPPRRTRVPFAAYSARVWACDHFGVTV | not soluble
EFIGCNDHTVVIEDDGRRWVTREPALVYFNKHTWFNVVAMIRDSGVSYYCNIASPFVLDREALKYVDYDLDVKVFPNGERRLLDMDEFEQFSKKWRYP | not soluble
